Measured values: article PMC5490839 (Nature immunology, 2016)
Where a chain is given by its changes, count along the chain named. Where no end group is shown, it is not given here. The star is where a group is joined. Maleimide‑PEG2‑Biotin = EZ Link Maleimide-PEG2-Biotin, O=C(CCCC[C@@H]1SC[C@@H]2NC(=O)N[C@@H]21)NCCOCCOCCNC(=O)CCN1C(=O)CC(*)C1=O

What was measured:
[1] = biological target: T1, wild-type Zap70 (full-length human Zap70) (human, UniProt P43403 1-619); assay: ELISA
T1 sequence (looked up): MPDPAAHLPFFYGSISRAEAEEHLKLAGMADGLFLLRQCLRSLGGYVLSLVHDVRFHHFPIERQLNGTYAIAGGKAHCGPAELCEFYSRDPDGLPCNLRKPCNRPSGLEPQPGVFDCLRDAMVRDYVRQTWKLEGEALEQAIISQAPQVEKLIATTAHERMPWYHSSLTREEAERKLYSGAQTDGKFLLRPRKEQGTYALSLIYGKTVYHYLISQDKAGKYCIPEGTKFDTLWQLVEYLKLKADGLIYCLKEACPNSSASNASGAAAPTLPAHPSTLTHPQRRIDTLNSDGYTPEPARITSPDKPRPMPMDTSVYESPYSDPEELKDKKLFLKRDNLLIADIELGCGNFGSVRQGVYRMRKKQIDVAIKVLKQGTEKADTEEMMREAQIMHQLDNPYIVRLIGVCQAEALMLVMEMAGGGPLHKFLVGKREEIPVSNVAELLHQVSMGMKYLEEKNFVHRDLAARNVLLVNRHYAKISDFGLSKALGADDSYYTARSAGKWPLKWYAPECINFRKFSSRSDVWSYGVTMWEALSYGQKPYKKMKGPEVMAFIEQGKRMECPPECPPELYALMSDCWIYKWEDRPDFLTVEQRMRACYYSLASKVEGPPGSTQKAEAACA

[2] = biological target: T2, Zap70 K369R (full length) (human, UniProt P43403 1-619, K369R); assay: ELISA
T2 sequence (looked up): T1 sequence (looked up) with K369R

[3] = biological target: T3, Zap70 K369A (full length) (human, UniProt P43403 1-619, K369A); assay: ELISA
T3 sequence (looked up): T1 sequence (looked up) with K369A

[4] = biological target: T4, Zap70 D461N (full length, kinase-inactive) (human, UniProt P43403 1-619, D461N); assay: ELISA
T4 sequence (looked up): T1 sequence (looked up) with D461N

[5] = biological target: T1, wild-type Zap70 (full-length human …); assay: BLI
[6] = biological target: T2, Zap70 K369R (full length); assay: BLI
[7] = biological target: T3, Zap70 K369A (full length); assay: BLI
[8] = biological target: T4, Zap70 D461N (full length, …); assay: BLI

Measured: binding result

GGAGQDGVRQSRASDKQTLLPNDQLYQPLKDREDDQYSHLQGNQLRRN (domain or fragment, also: ITAM phosphorylated by Lck, sites not given here, GST fusion)
binds: [1] | [2] | [3] | [4]

C(Maleimide‑PEG2‑Biotin)AGQDGVRQSRASDKQTLLPNDQLYQPLKDREDDQYSHLQGNQLRRN (domain or fragment, also: ITAM phosphorylated by Lck, sites not given here) [bio-phosphorylated CD3γ^CD (biotinylated, phosphorylated cysCD3γ^CD, human CD3γ amino acids 137-182)]
binds: [5] | [6] | [7] | [8]
